According to paper PMC3918441 (Cell reports, 2014):

Columns and labels:
yeast KDM5 PHD finger = target: T1, yeast KDM5 PHD finger (S. cerevisiae, Zn2+-bound; 15N-labelled); assay: NMR titration
T1 chain: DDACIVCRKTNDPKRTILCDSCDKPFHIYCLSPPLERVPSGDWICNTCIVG

human KDM5D PHD1 finger = human KDM5D PHD1 finger (human, Zn2+-bound; 15N-labelled); assay: NMR titration

ARTKQTARKSTG (peptide, UniProt P68431 2-13, looked up) [H3K4me0 peptide (aa 1-12 of H3)]
Kd (yeast KDM5 PHD finger): 117 µM
Kd (human KDM5D PHD1 finger): 3500 µM
